Reference: publication PMC6071530

Molecular target: Recombinant human S100A4 (human) (UniProt P26447)
Assay: SPR; BIAcore 2000; 2000 RU of recombinant human S100A4 immobilized covalently on a CM4 chip; soluble AR or NRG as analyte

Recombinant human S100A4 (human), sequence (P26447 whole entry): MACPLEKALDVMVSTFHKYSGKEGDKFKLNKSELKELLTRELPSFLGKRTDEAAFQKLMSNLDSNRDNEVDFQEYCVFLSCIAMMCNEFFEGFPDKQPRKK

Kd: 0.0199 µM
Substance: Neuregulin 1 (from UniProt Q02297 20-241) (ligand)
